Bridge positions count the residues as written; N and C are the ends. Ends that are not written are not given here. * marks the point of attachment. Cam = NC(=O)C*
B1: cyclized peptide ACDCRGDCFCG (peptide)
peptide: ACDCRGDCFCG
modifications: disulfide (positions not given here); also: two disulfide bonds, pairing not determined
notes: synthetic; also called double disulfide bond-containing peptide
B2: CPSRLDSPC phage (peptide)
peptide: CPSRLDSPC
modifications: disulfide 1-9 (inferred); not fully specified (N-terminus, C-terminus)
notes: on fuse 5 phage, fused to pIII; also called RLD-containing phage
B3: vitronectin purified from human plasma (ligand, UniProt P04004 20-478, looked up)
chain: DQESCKGRCTEGFNVDKKCQCDELCSYYQSCCTDYTAECKPQVTRGDVFTMPEDEYTVYDDGEEKNNATVHEQVGGPSLTSDLQAQSKGNPEQTPVLKPEEEAPAPEVGASKPEGIDSRPETLHPGRPQPPAEEELCSGKPFDAFTDLKNGSLFAFRGQYCYELDEKAVRPGYPKLIRDVWGIEGPIDAAFTRINCQGKTYLFKGSQYWRFEDGVLDPDYPRNISDGFDGIPDNVDAALALPAHSYSGRERVYFFKGKQYWEYQFQHQPSQEECEGSSLSAVFEHFAMMQRDSWEDIFELLFWGRTSAGTRQPQFISRDWHGVPGQVDAAMAGRIYISGMAPRPSLAKKQRFRHRNRKGYRSQRGHSRGRNQNSRRPSRATWLSLFSSEESNLGANNYDDYRMDWLVPATCEPIQSVFFFSGDKYYRVNLRTRRVDTVDPPYPRSIAQYWLGCPAPGHL
notes: also called labeled vitronectin
B4: cyclic peptide GACRGDCLGA (peptide)
peptide: GACRGDCLGA
modifications: disulfide 3-7 (inferred)
notes: synthetic; also called cyclic CRGDCL peptide
B5: CRGDCL-displaying phage (peptide)
peptide: CRGDCL
notes: on fuse 5 phage, fused to pIII; also called phage expressing CRGDCL
B6: cyclic peptide A*CPSRLDSPC*G (peptide)
peptide: ACPSRLDSPCG
modifications: disulfide 2-10 (inferred)
notes: synthetic; also called RLD-containing peptide
B7: CRGDGFC phage (peptide)
peptide: CRGDGFC
modifications: disulfide 1-7 (inferred)
notes: on fuse 5 phage, fused to pIII; not shown: The pIII coat protein of the fuse 5 phage vector and its junction residues

How the values were obtained:
[1] = biological target: αvβ3 integrin on IMR-90 cells (UniProt P06756 31-1048; P05106 27-788); experiment: cell-based or functional assay
[2] = biological target: αvβ5 integrin on HT-29 and UCLA-P3 cells (UniProt P06756 31-1048; P18084 24-799); experiment: cell-based or functional assay
[3] = biological target: T1, αvβ5 integrin isolated from human placental extract (human, UniProt P06756 31-1048; P18084 24-799); experiment: competition with … phage on αvβ5-coated wells
Method: [SEQ ID NO:10] sequence were incubated for 1 hour in integrin-coated wells in the presence of the competing peptides or dimethyl sulfoxide solvent as a control.

[4] = biological target: T2, αvβ3 integrin isolated from human placental extract (human, UniProt P06756 31-1048; P05106 27-788); experiment: competition with phage on αvβ3-coated wells
T2 construct: isolated on GRGDSPK-Sepharose; said to be primarily αvβ3

[5] = biological target: T3, α5β1 integrin isolated from human placental extract (human, UniProt P08648 42-1049; P05556 21-798); experiment: phage panning on coated integrin
T3 construct: coated on plastic wells or captured by anti-α5 antibody; also called fibronectin receptor

[6] = biological target: α5β1 integrin composed of human α5 and CHO β1 on B2/α27 cells (human; Chinese hamster (CHO), UniProt P08648 42-1049); experiment: cell-based or functional assay
[7] = biological target: T2, αvβ3 integrin isolated from human …; experiment: affinity chromatography of placental extract
[8] = biological target: T3, α5β1 integrin isolated from human …; experiment: phage binding to integrin-coated wells
[9] = biological target: T2, αvβ3 integrin isolated from human …; experiment: phage panning on coated integrin
Method: (§1) In the first panning, the integrins were coated at 5 µg per well, and the library pool was incubated for 4 hours at 25° C. in TBS buffer containing 1% bovine serum albumin and 1 mM MnCl_2 (α_5β_1, α_vβ_3) 1 mM MgCl_2 ($\alphaIIb\beta_3$) or 1 mM CaCl_2 (α_vβ_5).

[10] = biological target: αvβ1 integrin on CHO cell line B2/v7; experiment: cell-based or functional assay
[11] = biological target: T1, αvβ5 integrin isolated from human …; experiment: affinity chromatography of placental extract
[12] = biological target: T3, α5β1 integrin isolated from human …; experiment: competition with RRETAWA phage on α5β1-coated wells
[13] = biological target: T2, αvβ3 integrin isolated from human …; experiment: competition with CRGDCL phage on αvβ3-coated wells
Method: The ability of […] […] [SEQ ID NO:5] was added to compete for binding. Binding was quantitated as described above.

[14] = biological target: T3, α5β1 integrin isolated from human …; experiment: phage binding to α5β1-coated wells
[15] = biological target: T1, αvβ5 integrin isolated from human …; experiment: phage competition on αvβ5-coated wells
[16] = biological target: T2, αvβ3 integrin isolated from human …; experiment: phage competition on αvβ3-coated wells
[17] = biological target: T3, α5β1 integrin isolated from human …; experiment: phage panning on coated integrin; remark: listed apart in the source
Method: as §1

T1 sequence (P06756 31-1048, chain 1 of 2): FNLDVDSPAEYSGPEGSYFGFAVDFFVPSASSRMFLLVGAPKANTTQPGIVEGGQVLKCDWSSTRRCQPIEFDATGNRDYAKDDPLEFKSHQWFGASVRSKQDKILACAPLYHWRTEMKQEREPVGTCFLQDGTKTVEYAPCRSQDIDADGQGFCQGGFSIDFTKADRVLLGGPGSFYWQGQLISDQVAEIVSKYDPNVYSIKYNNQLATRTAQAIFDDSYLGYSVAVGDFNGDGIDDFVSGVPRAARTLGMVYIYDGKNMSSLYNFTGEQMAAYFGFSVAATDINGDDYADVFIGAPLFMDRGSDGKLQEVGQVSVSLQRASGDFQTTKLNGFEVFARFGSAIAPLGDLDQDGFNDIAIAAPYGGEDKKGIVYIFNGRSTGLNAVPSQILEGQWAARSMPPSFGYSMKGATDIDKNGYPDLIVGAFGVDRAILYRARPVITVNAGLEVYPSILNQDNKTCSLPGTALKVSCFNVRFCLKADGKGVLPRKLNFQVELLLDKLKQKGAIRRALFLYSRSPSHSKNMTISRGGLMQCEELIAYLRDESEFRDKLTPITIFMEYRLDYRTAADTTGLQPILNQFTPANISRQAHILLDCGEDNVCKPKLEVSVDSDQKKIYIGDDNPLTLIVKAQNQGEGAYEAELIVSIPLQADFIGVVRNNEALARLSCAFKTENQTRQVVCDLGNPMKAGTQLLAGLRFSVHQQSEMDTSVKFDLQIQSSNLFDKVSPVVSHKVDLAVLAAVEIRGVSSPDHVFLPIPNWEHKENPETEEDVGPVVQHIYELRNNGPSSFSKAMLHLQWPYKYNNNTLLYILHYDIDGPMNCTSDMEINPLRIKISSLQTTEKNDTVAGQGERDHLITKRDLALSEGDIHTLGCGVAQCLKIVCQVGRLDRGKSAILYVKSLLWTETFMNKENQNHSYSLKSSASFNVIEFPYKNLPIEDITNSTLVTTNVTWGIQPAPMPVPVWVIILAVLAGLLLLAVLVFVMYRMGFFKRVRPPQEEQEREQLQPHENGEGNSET
T1 sequence (P18084 24-799, chain 2 of 2): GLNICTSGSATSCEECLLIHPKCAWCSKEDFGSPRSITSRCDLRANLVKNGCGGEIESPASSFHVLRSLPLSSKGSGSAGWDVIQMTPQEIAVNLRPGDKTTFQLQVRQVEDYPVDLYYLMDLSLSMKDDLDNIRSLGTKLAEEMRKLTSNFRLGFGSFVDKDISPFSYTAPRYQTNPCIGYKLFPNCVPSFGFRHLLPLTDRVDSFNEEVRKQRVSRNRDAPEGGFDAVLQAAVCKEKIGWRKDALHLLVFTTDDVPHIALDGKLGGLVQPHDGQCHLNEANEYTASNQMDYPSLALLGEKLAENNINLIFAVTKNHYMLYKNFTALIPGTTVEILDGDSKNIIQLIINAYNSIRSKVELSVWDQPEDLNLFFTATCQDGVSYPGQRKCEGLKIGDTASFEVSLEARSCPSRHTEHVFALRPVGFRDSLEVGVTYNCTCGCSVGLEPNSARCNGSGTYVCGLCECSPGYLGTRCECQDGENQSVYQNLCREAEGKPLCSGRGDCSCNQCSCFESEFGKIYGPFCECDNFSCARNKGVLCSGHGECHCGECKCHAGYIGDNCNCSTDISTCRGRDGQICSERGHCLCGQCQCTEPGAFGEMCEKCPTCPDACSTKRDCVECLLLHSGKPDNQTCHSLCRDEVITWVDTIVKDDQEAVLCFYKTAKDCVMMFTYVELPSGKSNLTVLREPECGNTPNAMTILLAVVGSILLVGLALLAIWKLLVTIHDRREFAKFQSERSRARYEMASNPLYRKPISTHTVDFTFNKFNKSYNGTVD
αvβ5 integrin on HT-29 and UCLA-P3 cells, sequence (P06756 31-1048, chain 1 of 2): as the sequence (P06756 31-1048, chain 1 of 2) above
αvβ5 integrin on HT-29 and UCLA-P3 cells, sequence (P18084 24-799, chain 2 of 2): as the sequence (P18084 24-799, chain 2 of 2) above
T2 sequence (P06756 31-1048, chain 1 of 2): as the sequence (P06756 31-1048, chain 1 of 2) above
T2 sequence (P05106 27-788, chain 2 of 2): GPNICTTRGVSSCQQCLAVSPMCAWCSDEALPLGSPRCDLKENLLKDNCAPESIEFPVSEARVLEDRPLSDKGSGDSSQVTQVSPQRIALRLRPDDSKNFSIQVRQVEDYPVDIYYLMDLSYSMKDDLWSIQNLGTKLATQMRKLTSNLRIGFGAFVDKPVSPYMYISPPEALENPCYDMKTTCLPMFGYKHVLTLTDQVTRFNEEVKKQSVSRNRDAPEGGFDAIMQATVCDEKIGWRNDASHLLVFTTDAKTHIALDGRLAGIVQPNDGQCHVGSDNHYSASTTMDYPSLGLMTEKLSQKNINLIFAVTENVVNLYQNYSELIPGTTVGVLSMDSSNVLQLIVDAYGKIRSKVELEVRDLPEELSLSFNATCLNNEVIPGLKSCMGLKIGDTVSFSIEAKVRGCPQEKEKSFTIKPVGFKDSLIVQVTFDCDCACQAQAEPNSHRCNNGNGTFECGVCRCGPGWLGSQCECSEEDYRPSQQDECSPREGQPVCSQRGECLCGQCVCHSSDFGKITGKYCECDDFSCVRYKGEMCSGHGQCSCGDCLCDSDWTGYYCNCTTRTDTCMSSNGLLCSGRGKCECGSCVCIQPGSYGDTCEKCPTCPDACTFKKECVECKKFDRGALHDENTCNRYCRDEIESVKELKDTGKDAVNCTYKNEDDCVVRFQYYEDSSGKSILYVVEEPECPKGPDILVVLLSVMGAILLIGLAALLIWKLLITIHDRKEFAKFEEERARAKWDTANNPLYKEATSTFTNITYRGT
T3 sequence (P08648 42-1049, chain 1 of 2): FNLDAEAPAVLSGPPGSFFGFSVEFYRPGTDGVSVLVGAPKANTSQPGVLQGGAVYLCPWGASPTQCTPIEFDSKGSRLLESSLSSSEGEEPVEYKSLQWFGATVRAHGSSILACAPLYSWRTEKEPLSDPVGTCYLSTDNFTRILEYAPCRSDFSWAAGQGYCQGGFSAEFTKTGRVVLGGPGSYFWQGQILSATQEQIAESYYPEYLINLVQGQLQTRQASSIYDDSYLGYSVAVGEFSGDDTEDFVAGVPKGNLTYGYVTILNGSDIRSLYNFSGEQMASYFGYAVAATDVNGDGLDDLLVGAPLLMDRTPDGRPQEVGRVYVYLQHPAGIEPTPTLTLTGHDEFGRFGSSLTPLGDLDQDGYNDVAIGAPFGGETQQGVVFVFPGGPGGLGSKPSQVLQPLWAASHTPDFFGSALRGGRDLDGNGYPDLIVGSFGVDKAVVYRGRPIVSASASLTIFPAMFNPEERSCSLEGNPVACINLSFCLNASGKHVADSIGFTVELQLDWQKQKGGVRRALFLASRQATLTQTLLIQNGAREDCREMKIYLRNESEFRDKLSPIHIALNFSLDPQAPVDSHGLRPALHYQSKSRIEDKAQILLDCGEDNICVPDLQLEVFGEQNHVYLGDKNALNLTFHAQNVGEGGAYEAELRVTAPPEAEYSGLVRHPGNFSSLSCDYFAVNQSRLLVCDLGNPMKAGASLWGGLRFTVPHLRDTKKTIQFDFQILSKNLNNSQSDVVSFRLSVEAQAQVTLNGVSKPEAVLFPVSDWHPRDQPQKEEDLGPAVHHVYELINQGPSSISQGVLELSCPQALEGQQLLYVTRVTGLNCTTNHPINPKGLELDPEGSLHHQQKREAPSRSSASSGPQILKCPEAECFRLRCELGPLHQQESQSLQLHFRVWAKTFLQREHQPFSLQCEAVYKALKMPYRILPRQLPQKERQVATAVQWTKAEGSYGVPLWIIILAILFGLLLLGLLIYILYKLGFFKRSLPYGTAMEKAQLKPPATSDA
T3 sequence (P05556 21-798, chain 2 of 2): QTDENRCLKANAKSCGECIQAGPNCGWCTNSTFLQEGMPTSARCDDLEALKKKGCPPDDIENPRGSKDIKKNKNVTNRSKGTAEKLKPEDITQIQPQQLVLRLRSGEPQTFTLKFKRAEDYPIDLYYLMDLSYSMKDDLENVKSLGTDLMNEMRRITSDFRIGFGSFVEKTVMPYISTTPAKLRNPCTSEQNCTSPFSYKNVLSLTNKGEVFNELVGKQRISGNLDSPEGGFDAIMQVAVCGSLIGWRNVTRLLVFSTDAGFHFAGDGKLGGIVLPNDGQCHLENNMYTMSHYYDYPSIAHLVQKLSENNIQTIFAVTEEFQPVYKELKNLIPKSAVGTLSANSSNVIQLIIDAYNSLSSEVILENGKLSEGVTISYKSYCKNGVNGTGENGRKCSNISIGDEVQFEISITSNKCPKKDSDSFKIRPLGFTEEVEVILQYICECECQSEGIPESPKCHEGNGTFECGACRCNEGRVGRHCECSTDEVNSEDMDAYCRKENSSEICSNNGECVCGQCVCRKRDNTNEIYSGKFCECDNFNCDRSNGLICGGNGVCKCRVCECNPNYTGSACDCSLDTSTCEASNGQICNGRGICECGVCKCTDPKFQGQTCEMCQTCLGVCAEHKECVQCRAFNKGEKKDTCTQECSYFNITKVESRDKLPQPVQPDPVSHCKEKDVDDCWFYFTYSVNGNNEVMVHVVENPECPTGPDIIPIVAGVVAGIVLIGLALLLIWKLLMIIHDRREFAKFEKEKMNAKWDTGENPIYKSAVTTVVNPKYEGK
α5β1 integrin composed of human α5 and CHO β1 on B2/α27 cells, sequence (P08648 42-1049): as the sequence (P08648 42-1049, chain 1 of 2) above
αvβ3 integrin on IMR-90 cells, sequence (P06756 31-1048, chain 1 of 2): as the sequence (P06756 31-1048, chain 1 of 2) above
αvβ3 integrin on IMR-90 cells, sequence (P05106 27-788, chain 2 of 2): as the sequence (P05106 27-788, chain 2 of 2) above

Row | Binder | binding result [5] | further results
1 | B1 | – | IC50 of inhibition of attachment of IMR-90 cells to vitronectin [1]: 200 nM; fold more effective than *CRGDC*, attachment of IMR-90 cells to vitronectin [1]: 20 fold; IC50 of inhibition of attachment of HT-29 cells to vitronectin [2]: 600 nM; IC50 of inhibition of attachment of UCLA-P3 cells to vitronectin [2]: 600 nM; fold enhancement in activity relative to *CRGDC*, UCLA-P3 cells [2]: 20 fold; fold higher affinity than *CRGDC*, attachment of HT-29 cells to vitronectin [2]: 40 fold; fold higher affinity than A*CRGDGWC*G, attachment of HT-29 cells to vitronectin [2]: 40 fold; fold more potent than *CRGDC* [3]: 10 fold; fold better inhibition than *CRGDC* [4]: 5 fold
2 | WCREETGWWC (on fuse 5 phage, fused to pIII) [WCREETGWWC phage] | binds | –
3 | GACELRGDGWCGA (disulfide 3-11 (inferred)) [cyclic peptide GAC*ELRGDGWC*GA] | – | fold less active than A*CRGDGWC*G, cell attachment to fibronectin [6]: 10 fold
4 | WCRRETNWAC (on fuse 5 phage, fused to pIII) [WCRRETNWAC phage] | binds | –
5 | GRGDSPK (also: coupled to Sepharose, also called GRGDSPK peptide column) [Sepharose-coupled GRGDSPK peptide] | – | binding result [7]: binds
6 | B2 | – | binding result [8]: no binding; binding result [9]: binds
7 | SCREETGWGC (on fuse 5 phage, fused to pIII) [SCREETGWGC phage] | binds | –
8 | ACRAETAWRC (on fuse 5 phage, fused to pIII) [ACRAETAWRC phage] | binds | –
9 | YCRPETAWAC (on fuse 5 phage, fused to pIII) [YCRPETAWAC phage] | binds | –
10 | PCREETAWRC (on fuse 5 phage, fused to pIII) [PCREETAWRC phage] | binds | –
11 | SCRRETQWHC (on fuse 5 phage, fused to pIII) [SCRRETQWHC phage] | binds | –
12 | GACRRETAWACGA (disulfide 3-11 (inferred)) [cyclic peptide GACRRETAWACGA] | – | IC50 of inhibition of cell attachment to fibronectin (B2/α27 cells) [6]: 30000 nM; fold less active than the cyclic RGD peptide, inhibition of cell attachment to fibronectin [10]: > 100 ×; fold less active than …, inhibition of cell attachment to fibronectin [10]: ~40 ×
13 | DCRRETSWAC (on fuse 5 phage, fused to pIII) [DCRRETSWAC phage] | binds | –
14 | WCRPETGWRC (on fuse 5 phage, fused to pIII) [WCRPETGWRC phage] | binds | –
15 | B3 | – | binding result [11]: binds
16 | DCRHETAWAC (on fuse 5 phage, fused to pIII) [DCRHETAWAC phage] | binds | –
17 | SCRDETLWWC (on fuse 5 phage, fused to pIII) [SCRDETLWWC phage] | binds | –
18 | GAC(Cam)RRETAWAC(Cam)GA [GACRRETAWACGA linearized by reduction and alkylation] | – | fold reduction of activity against the cyclic peptide, cell attachment to fibronectin [6]: ~50 ×
19 | RCRAETGWAC (on fuse 5 phage, fused to pIII) [RCRAETGWAC phage] | binds | –
20 | B4 | – | binding result [12]: binds; binding result [13]: binds
21 | GCREETAWQC (on fuse 5 phage, fused to pIII) [GCREETAWQC phage] | binds | –

Row | Binder | binding result [5] | further results
22 | B5 | – | binding result [14]: binds
23 | CRRETAWAC (on fuse 5 phage, fused to pIII) [CRRETAWAC phage] | binds | –
24 | B6 | – | fold lower activity than *CRGDC* [15]: 1000 fold; fold lower activity than *CRGDC* [16]: 100 fold
25 | RCREETAWAC (on fuse 5 phage, fused to pIII) [RCREETAWAC phage] | binds | –
26 | RCRSETAWAC (on fuse 5 phage, fused to pIII) [RCRSETAWAC phage] | binds | –
27 | RCREETLWAC (on fuse 5 phage, fused to pIII) [RCREETLWAC phage] | binds | –
28 | CRSETYWKC (on fuse 5 phage, fused to pIII) [CRSETYWKC phage] | binds | –
29 | ECRRETAWAC (on fuse 5 phage, fused to pIII) [ECRRETAWAC phage] | binds | –
30 | HCRRETAWAC (on fuse 5 phage, fused to pIII) [HCRRETAWAC phage] | binds | –
31 | GCRKETAWAC (on fuse 5 phage, fused to pIII) [GCRKETAWAC phage] | binds | –
32 | GCRRETEWAC (on fuse 5 phage, fused to pIII) [GCRRETEWAC phage] | binds | –
33 | ECRRETAWGC (on fuse 5 phage, fused to pIII) [ECRRETAWGC phage] | binds | –
34 | VCRKETAWAC (on fuse 5 phage, fused to pIII) [VCRKETAWAC phage] | binds | –
35 | ACRRETAWAC (on fuse 5 phage, fused to pIII) [ACRRETAWAC phage] | binds | –
36 | ECRRETAWSC (on fuse 5 phage, fused to pIII) [ECRRETAWSC phage] | binds | –
37 | GCRRETAWAC (on fuse 5 phage, fused to pIII) [GCRRETAWAC phage] | binds | –
38 | ECRRETAWWC (on fuse 5 phage, fused to pIII) [ECRRETAWWC phage] | binds | –
39 | SCRAETAWMC (on fuse 5 phage, fused to pIII) [SCRAETAWMC phage] | binds | –
40 | DCRRETAWRC (on fuse 5 phage, fused to pIII) [DCRRETAWRC phage] | binds | –
41 | B7 | – | binding result [17]: binds
42 | WCRGETAWAC (on fuse 5 phage, fused to pIII) [WCRGETAWAC phage] | binds | –

Reference: patent US7067619 (LA JOLLA CANCER RESEARCH FOUNDATION, dated 2006)
